Publication PMC5551413

Assays:
[1] = biological target: Streptococcus pyogenes NH3-dependent NAD+ synthetase (spNadE) (Streptococcus pyogenes); experiment: crystal structure
[2] = biological target: Streptococcus pyogenes NH3-dependent NAD+ synthetase (spNadE) (Streptococcus pyogenes); experiment: SEC
[3] = biological target: Streptococcus pyogenes NH3-dependent NAD+ synthetase (spNadE) (Streptococcus pyogenes); experiment: dynamic light scattering
[4] = biological target: Streptococcus pyogenes quinolinate phosphoribosyltransferase (spNadC) (Streptococcus pyogenes); experiment: SEC
[5] = biological target: Streptococcus pyogenes quinolinate phosphoribosyltransferase (spNadC) (Streptococcus pyogenes); experiment: dynamic light scattering
[6] = biological target: spNadC Δ69A deletion mutant (Streptococcus pyogenes); experiment: crystal structure

In the case of “Streptococcus pyogenes NH3-dependent NAD+ synthetase (spNadE) (enzyme)”, the stoichiometry N [1] is reported as 2, the stoichiometry N [2] is reported as 2 and the stoichiometry N [3] is reported as 2.

Substance “Streptococcus pyogenes quinolinate phosphoribosyltransferase (spNadC) (enzyme)” has a stoichiometry N [4] of 6 and a stoichiometry N [5] of 6.

spNadC Δ69A deletion mutant (enzyme) showed a stoichiometry N [6] of 6.
